Source: patent US20210269545A1
pEC50: −log10 of the molar value.

What was measured:
[1] = target: CD38 on cells (human) (UniProt P28907); assay: flow cytometry, Raji cells expressing CD19 and CD38
[2] = target: CD38 on cells (human) (UniProt P28907); assay: flow cytometry, Raji cells; adjusted fit with the top asymptote fixed at about the maximum response of Darzalex
[3] = target: CD38 on cells (human) (UniProt P28907); assay: flow cytometry, Raji cells expressing CD19 and CD38; remark: listed apart in the source
[4] = target: CD38 on cells (human) (UniProt P28907); assay: flow cytometry, Raji cells expressing CD19 and CD38 (negative control)
[5] = target: CD19 on cells (human) (UniProt P15391); assay: as above
CD19 on cells (human), sequence (P15391 20-556): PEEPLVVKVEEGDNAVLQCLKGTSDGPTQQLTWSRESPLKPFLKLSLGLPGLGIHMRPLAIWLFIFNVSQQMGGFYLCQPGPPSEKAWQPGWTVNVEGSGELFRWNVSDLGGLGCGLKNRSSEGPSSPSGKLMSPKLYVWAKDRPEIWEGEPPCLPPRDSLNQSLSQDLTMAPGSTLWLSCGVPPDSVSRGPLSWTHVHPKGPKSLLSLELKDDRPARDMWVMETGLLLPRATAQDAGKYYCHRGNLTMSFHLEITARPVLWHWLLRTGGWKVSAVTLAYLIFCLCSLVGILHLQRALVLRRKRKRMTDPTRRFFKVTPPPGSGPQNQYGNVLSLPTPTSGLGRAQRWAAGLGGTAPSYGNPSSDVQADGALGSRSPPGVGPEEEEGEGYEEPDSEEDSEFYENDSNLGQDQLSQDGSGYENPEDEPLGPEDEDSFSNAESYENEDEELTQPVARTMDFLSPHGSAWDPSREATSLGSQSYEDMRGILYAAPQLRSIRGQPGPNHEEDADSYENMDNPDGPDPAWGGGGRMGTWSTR

| EC50 [1] | Max MFI [1] | pEC50 [2] | pEC50 [3] | EC50 [4] | Max MFI [4] | EC50 [5] | Max MFI [5] | Substance |
| --- | --- | --- | --- | --- | --- | --- | --- | --- |
| 0.195 µg/mL | 4.02e+06 MFI | 8.90 | 8.90 | – | – | – | – | Darzalex (antibody) |
| – | – | – | – | 4620 µg/mL | 38700 MFI | 4620 µg/mL | 38700 MFI | IgG1 isotype control (antibody) |
